Measured values taken from paper PMC6238616.

Target: SMN1, wild type, LUMIER fusion, Q16637
Experiment: LUMIER
Details: chain shown with the change;; parent: est. 51000; read off a plot

Sequence of SMN1, wild type, LUMIER fusion, Q16637 (Q16637 whole entry, the tested form may be a part): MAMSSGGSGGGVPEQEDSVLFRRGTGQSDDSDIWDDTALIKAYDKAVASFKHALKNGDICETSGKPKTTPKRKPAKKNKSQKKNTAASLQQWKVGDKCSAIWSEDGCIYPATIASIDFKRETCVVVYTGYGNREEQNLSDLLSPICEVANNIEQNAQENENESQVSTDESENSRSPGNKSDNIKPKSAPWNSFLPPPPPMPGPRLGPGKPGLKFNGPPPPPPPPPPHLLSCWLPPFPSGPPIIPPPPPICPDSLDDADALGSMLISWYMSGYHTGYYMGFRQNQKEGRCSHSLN

B1: PHF1, wild type, LUMIER fusion, O43189 Y47A (protein)
chain: MAQPPRLSRSGASSLWDPASPAPTSGPRPRLWEGQDVLARWTDGLLALGTIKKVDSAREVCLVQFEDDSQFLVLWKDISPAALPGEELLCCVCRSETVVPGNRLVSCEKCRHAYHQDCHVPRAPAPGEGEGTSWVCRQCVFAIATKRGGALKKGPYARAMLGMKLSLPYGLKGLDWDAGHLSNRQQSYCYCGGPGEWNLKMLQCRSCLQWFHEACTQCLSKPLLYGDRFYEFECCVCRGGPEKVRRLQLRWVDVAHLVLYHLSVCCKKKYFDFDREILPFTSENWDSLLLGELSDTPKGERSSRLLSALNSHKDRFISGREIKKRKCLFGLHARMPPPVEPPTGDGALTSFPSGQGPGGGVSRPLGKRRRPEPEPLRRRQKGKVEELGPPSAVRNQPEPQEQRERAHLQRALQASVSPPSPSPNQSYQGSSGYNFRPTDARCLPSSPIRMFASFHPSASTAGTSGDSGPPDRSPLELHIGFPTDIPKSAPHSMTASSSSVSSPSPGLPRRSAPPSPLCRSLSPGTGGGVRGGVGYLSRGDPVRVLARRVRPDGSVQYLVEWGGGGIF
  response: 28000 RU
